Measurements reported in article PMC9482650, “Quantitative fragmentomics allow affinity mapping of interactomes” (Nature Communications, 2022).

Legend:
Test in all cases: holdup assay
Parameters in all cases: key: below the threshold = too weak to quantify, mostly under pKd 3.1 to 4
Settings in all cases: plain residues with an end cap or a label only (N-terminal biotin on a linker: ado-ado)
TIAM2, Q8IVF5 = molecular target: T1, TIAM2, Q8IVF5
T1 sequence (Q8IVF5 885-986, limits assumed, looked up): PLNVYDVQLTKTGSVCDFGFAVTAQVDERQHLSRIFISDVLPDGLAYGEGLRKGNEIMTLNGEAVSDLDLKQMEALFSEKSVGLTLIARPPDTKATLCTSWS

GRIP1_7, Q9Y3R0 = molecular target: T2, GRIP1_7, Q9Y3R0
T2 sequence (Q9Y3R0 999-1096, limits assumed, looked up): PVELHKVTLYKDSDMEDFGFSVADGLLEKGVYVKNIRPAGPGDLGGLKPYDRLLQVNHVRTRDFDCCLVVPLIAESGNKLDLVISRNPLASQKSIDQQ

FRMPD1, Q5SYB0 = molecular target: T3, FRMPD1, Q5SYB0
T3 sequence (Q5SYB0 52-145, limits assumed, looked up): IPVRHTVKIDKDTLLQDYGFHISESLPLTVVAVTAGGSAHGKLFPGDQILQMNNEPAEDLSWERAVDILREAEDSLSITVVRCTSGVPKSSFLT

MPDZ_12, O75970 = molecular target: T4, MPDZ_12, O75970
T4 sequence (O75970 1857-1958, limits assumed, looked up): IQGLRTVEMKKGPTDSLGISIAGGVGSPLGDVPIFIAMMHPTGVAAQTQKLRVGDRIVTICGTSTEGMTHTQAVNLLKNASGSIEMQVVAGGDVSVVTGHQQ

TJP1_2, Q07157 = molecular target: TJP1_2, Q07157
TJP1_2, Q07157, sequence (Q07157 181-274): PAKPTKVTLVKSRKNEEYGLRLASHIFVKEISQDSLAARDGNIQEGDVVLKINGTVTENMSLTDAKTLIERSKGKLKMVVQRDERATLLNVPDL

GRIP2_3, Q9C0E4 = molecular target: GRIP2_3, Q9C0E4
GRIP2_3, Q9C0E4, sequence (Q9C0E4 238-339): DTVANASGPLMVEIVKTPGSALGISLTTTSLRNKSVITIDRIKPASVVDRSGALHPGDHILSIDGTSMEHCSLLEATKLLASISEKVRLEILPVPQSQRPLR

CARD11, Q9BXL7 = molecular target: T5, CARD11, Q9BXL7
T5 sequence (Q9BXL7 662-765, limits assumed, looked up): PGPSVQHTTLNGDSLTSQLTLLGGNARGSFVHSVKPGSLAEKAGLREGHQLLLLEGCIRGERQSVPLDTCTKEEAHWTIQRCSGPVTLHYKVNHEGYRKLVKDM

SCRIB_1, Q14160 = molecular target: SCRIB_1, Q14160
SCRIB_1, Q14160, sequence (Q14160 718-814): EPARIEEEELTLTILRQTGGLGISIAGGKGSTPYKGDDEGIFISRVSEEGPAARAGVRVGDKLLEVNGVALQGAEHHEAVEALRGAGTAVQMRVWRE

ARHGEF12, Q9NZN5-2 = molecular target: ARHGEF12, Q9NZN5-2
ARHGEF12, Q9NZN5-2, sequence (Q9NZN5 other isoform, or with tags, fused parts or gaps): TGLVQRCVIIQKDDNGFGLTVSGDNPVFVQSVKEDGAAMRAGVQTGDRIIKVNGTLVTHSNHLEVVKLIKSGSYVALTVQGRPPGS

Inadl_3, Q8NI35 = molecular target: Inadl_3, Q8NI35
Inadl_3, Q8NI35, sequence (Q8NI35 359-469): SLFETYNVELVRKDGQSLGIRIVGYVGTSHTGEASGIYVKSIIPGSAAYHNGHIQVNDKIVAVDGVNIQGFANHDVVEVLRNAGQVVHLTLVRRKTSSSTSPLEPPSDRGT

DVL3, Q92997 = molecular target: T6, DVL3, Q92997
T6 sequence (Q92997 244-331, limits assumed, looked up): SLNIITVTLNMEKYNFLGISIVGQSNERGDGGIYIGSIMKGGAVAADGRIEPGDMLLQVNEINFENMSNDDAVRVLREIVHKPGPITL

PDZD7_3, Q9H5P4 = molecular target: T7, PDZD7_3, Q9H5P4
T7 sequence (Q9H5P4 857-944, limits assumed, looked up): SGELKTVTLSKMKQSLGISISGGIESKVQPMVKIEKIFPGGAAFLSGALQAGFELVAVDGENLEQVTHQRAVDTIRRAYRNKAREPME

MAST2, Q6P0Q8 = molecular target: MAST2, Q6P0Q8
MAST2, Q6P0Q8, sequence (Q6P0Q8 1099-1202): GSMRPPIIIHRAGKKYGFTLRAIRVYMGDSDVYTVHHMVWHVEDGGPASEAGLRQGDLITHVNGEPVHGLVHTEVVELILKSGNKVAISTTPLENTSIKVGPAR

APBA2_2, Q99767 = molecular target: T8, APBA2_2, Q99767
T8 sequence (Q99767 654-744, limits assumed, looked up): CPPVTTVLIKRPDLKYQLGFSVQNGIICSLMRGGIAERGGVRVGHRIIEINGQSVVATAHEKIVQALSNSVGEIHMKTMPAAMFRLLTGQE

MPP7, Q5T2T1 = molecular target: T9, MPP7, Q5T2T1
T9 sequence (Q5T2T1 134-230, limits assumed, looked up): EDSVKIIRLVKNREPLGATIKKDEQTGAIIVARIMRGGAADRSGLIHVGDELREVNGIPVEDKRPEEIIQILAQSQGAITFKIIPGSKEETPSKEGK

SNTG1, Q9NSN8 = molecular target: T10, SNTG1, Q9NSN8
T10 sequence (Q9NSN8 52-150, limits assumed, looked up): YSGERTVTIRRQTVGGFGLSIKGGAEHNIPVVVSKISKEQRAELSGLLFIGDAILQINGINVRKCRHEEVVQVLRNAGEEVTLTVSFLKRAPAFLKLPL

MPP2, Q14168 = molecular target: T11, MPP2, Q14168
T11 sequence (Q14168 180-250, limits assumed, looked up): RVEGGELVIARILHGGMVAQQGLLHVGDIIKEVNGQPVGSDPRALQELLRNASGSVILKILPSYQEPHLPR

AHNAK1, Q09666 = molecular target: AHNAK1, Q09666
AHNAK1, Q09666, sequence (Q09666 4-100): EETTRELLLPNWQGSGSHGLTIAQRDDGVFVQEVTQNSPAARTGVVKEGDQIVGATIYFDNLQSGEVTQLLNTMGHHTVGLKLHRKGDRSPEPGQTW

LIMK2, P53671 = molecular target: LIMK2, P53671
LIMK2, P53671, sequence (P53671 143-248): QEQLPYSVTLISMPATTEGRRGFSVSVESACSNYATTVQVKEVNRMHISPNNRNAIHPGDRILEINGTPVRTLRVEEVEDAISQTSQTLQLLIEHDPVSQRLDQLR

LNX2_2, Q8N448 = molecular target: T12, LNX2_2, Q8N448
T12 sequence (Q8N448 334-432, limits assumed, looked up): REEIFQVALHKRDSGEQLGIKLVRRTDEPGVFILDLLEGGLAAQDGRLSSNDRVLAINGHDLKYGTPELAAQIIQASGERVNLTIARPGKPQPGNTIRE

HTRA4, P83105 = molecular target: T13, HTRA4, P83105
T13 sequence (P83105 378-476, limits assumed, looked up): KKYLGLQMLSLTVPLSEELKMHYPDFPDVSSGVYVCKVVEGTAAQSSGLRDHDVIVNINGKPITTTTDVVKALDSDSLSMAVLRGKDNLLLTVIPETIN

APBA2_1, Q99767 = molecular target: T14, APBA2_1, Q99767
T14 sequence (Q99767 563-664, limits assumed, looked up): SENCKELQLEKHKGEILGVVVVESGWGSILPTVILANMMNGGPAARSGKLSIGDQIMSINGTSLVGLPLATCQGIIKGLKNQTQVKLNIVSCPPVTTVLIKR

NHERF3_3, Q5T2W1 = molecular target: T15, NHERF3_3, Q5T2W1
T15 sequence (Q5T2W1 238-333, limits assumed, looked up): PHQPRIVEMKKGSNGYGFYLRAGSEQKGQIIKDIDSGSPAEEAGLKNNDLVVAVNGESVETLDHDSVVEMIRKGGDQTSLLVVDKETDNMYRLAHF

RDYTQSSSSL [GRM5, P41594]
pKd (TIAM2, Q8IVF5): 3.8 | pKd (GRIP1_7, Q9Y3R0): below the threshold | pKd (FRMPD1, Q5SYB0): below the threshold | pKd (MPDZ_12, O75970): below the threshold | pKd (TJP1_2, Q07157): below the threshold | pKd (GRIP2_3, Q9C0E4): below the threshold | pKd (CARD11, Q9BXL7): below the threshold | pKd (SCRIB_1, Q14160): below the threshold | pKd (ARHGEF12, Q9NZN5-2): 4.28 | pKd (Inadl_3, Q8NI35): below the threshold | pKd (DVL3, Q92997): below the threshold | pKd (PDZD7_3, Q9H5P4): below the threshold | pKd (MAST2, Q6P0Q8): 5.15 | pKd (APBA2_2, Q99767): below the threshold | pKd (MPP7, Q5T2T1): below the threshold | pKd (SNTG1, Q9NSN8): below the threshold | pKd (MPP2, Q14168): below the threshold | pKd (AHNAK1, Q09666): below the threshold | pKd (LIMK2, P53671): below the threshold | pKd (LNX2_2, Q8N448): below the threshold | pKd (HTRA4, P83105): 3.85 | pKd (APBA2_1, Q99767): below the threshold | pKd (NHERF3_3, Q5T2W1): below the threshold

QKASRNESTF [POLR1D, P0DPB6]
pKd (TIAM2, Q8IVF5): 3.92 | pKd (GRIP1_7, Q9Y3R0): below the threshold | pKd (FRMPD1, Q5SYB0): below the threshold | pKd (MPDZ_12, O75970): below the threshold | pKd (TJP1_2, Q07157): below the threshold | pKd (GRIP2_3, Q9C0E4): below the threshold | pKd (CARD11, Q9BXL7): below the threshold | pKd (SCRIB_1, Q14160): 3.55 | pKd (ARHGEF12, Q9NZN5-2): below the threshold | pKd (Inadl_3, Q8NI35): below the threshold | pKd (DVL3, Q92997): below the threshold | pKd (PDZD7_3, Q9H5P4): 3.71 | pKd (MAST2, Q6P0Q8): 4.95 | pKd (APBA2_2, Q99767): below the threshold | pKd (MPP7, Q5T2T1): below the threshold | pKd (SNTG1, Q9NSN8): below the threshold | pKd (MPP2, Q14168): below the threshold | pKd (AHNAK1, Q09666): below the threshold | pKd (LIMK2, P53671): below the threshold | pKd (LNX2_2, Q8N448): below the threshold | pKd (HTRA4, P83105): below the threshold | pKd (APBA2_1, Q99767): below the threshold | pKd (NHERF3_3, Q5T2W1): below the threshold

DSEEELPTRL [GRK6, P43250]
pKd (TIAM2, Q8IVF5): below the threshold | pKd (GRIP1_7, Q9Y3R0): below the threshold | pKd (FRMPD1, Q5SYB0): below the threshold | pKd (MPDZ_12, O75970): 3.47 | pKd (TJP1_2, Q07157): below the threshold | pKd (GRIP2_3, Q9C0E4): below the threshold | pKd (CARD11, Q9BXL7): below the threshold | pKd (SCRIB_1, Q14160): 3.53 | pKd (ARHGEF12, Q9NZN5-2): 3.57 | pKd (Inadl_3, Q8NI35): below the threshold | pKd (DVL3, Q92997): below the threshold | pKd (PDZD7_3, Q9H5P4): 4.18 | pKd (MAST2, Q6P0Q8): 4.83 | pKd (APBA2_2, Q99767): below the threshold | pKd (MPP7, Q5T2T1): below the threshold | pKd (SNTG1, Q9NSN8): below the threshold | pKd (MPP2, Q14168): below the threshold | pKd (AHNAK1, Q09666): below the threshold | pKd (LIMK2, P53671): below the threshold | pKd (LNX2_2, Q8N448): below the threshold | pKd (HTRA4, P83105): 3.92 | pKd (APBA2_1, Q99767): below the threshold | pKd (NHERF3_3, Q5T2W1): 3.7
